# Results reported in patent publication US20240239894A1 (AstraZeneca / MedImmune, published 2024).
# Numbering of substitutions follows the chain as printed.
# T1: huBTN2A1 (human, UniProt Q7KYR7 29-248, limits assumed)
# T1 construct: Sourced antigen; construct not described; also called Human BTN2A1
# T1 sequence (looked up): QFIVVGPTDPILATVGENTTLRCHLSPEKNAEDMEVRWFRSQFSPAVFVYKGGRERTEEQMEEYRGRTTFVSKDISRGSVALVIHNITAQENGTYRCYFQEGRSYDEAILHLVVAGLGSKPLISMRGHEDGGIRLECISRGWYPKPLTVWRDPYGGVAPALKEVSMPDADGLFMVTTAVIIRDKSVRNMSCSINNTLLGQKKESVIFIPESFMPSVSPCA
# T2: huB7-H3 (human, UniProt Q5ZPR3 29-461, limits assumed)
# T2 construct: Sourced antigen; construct not described; also called Human B7-H3
# T2 sequence (looked up): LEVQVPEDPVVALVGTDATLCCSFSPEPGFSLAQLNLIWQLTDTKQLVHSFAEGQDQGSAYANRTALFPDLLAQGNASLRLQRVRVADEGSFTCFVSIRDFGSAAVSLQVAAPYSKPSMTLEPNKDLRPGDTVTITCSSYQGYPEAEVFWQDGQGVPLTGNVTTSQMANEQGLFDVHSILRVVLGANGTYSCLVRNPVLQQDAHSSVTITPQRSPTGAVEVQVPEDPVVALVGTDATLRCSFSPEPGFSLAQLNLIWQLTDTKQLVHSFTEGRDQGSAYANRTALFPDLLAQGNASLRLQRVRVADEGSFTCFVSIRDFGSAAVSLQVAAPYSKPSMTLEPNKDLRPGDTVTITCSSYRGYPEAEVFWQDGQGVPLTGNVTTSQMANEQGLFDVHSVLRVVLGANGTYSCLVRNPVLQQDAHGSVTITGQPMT
# T3: huHHLA2 (human, UniProt Q9UM44 23-344)
# T3 construct: Sourced antigen; construct not described; also called Human HHLA2
# T3 sequence (looked up): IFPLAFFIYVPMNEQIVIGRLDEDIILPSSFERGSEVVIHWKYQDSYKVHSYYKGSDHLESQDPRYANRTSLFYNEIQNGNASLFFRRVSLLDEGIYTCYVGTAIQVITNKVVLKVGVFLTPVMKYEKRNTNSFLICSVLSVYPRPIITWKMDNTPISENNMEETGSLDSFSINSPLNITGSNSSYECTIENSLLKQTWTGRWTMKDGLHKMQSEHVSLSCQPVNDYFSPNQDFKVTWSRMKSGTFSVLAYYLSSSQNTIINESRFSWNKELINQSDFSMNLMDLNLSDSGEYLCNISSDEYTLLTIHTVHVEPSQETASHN
# T4: huBTNL3 (human, UniProt Q6UXE8 18-237, limits assumed)
# T4 construct: Sourced antigen; construct not described; also called Human BTNL3
# T4 sequence (looked up): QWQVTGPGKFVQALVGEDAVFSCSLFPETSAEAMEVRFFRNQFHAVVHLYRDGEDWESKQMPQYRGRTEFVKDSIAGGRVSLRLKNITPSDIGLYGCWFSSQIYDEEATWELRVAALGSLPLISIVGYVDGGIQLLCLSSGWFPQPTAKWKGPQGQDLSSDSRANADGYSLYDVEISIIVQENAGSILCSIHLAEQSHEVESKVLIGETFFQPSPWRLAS
# T5: huBTN1A1 (human, UniProt Q13410 27-242, limits assumed)
# T5 construct: Sourced antigen; construct not described; also called Human BTN1A1
# T5 sequence (looked up): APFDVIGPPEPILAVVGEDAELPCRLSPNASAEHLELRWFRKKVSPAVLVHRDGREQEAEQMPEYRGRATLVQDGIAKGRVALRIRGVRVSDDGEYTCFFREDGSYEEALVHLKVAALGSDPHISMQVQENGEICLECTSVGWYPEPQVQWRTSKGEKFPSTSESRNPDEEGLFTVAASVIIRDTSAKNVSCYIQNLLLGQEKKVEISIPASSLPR
# T6: huB7-H2 (human, UniProt O75144 19-258)
# T6 construct: Sourced antigen; construct not described; also called Human B7-H2
# T6 sequence (looked up): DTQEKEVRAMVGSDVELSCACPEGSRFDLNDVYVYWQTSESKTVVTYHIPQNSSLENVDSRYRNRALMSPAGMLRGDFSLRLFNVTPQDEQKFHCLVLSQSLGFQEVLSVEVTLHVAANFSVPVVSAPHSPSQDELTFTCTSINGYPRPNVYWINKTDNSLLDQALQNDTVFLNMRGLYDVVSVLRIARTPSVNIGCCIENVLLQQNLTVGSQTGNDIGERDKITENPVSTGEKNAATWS
# T7: Murine B7-H4-Fc (Mouse B7H4 ECD, Fc_6His) (mouse, UniProt Q7TSP5 25-257)
# T7 construct: extracellular domain; also called mouse B7-H4-Fc; FcHis6 tagged murine B7-H4
# T7 sequence (Q7TSP5 whole entry, looked up): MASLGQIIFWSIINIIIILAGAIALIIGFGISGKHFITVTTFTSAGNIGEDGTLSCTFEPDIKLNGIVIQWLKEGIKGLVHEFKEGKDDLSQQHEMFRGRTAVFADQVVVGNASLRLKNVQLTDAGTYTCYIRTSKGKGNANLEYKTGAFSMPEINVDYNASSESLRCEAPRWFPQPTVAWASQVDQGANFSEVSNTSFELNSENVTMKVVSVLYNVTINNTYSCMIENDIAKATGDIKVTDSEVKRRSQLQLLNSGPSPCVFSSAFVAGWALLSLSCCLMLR
# T8: Human B7-H4-Fc (Human B7H4 ECD, Fc_6His) (human)
# T8 construct: also called FcHis6 tagged human B7-H4
# T8 sequence (Q7Z7D3 whole entry, looked up): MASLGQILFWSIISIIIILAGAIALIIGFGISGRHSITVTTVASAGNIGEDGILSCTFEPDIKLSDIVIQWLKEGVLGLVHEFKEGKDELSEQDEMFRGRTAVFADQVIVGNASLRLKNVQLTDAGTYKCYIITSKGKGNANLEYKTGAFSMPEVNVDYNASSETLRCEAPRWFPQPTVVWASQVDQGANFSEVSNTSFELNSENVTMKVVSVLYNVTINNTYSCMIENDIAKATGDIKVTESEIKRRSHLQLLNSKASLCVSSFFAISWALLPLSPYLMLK
# B1: ZY0EP0-C07 human IgG1-TM (antibody, V domains shown)
# VH: QVQLVESGGVLVKPGGSLRLSCAASGFTLSDYYMSWIRQAPGMGLEWVSYISSSGSTIYYTDSVKGRFTISRDSAKNSLYLQMNSLRAEDTAVYYCARDGVGFDYWGQGTLVTVSS
# VL: EIVLTQSPGTLSLFPGERATLSCRASQSVSSSYLAWYQQKPGQSPRLLIYAASSRATGIPDRFSGSGSGTDFTLTISRLEPEDFAVYYCQQYGSSPLYTFGQGTKLEIK
# notes: also called ZY0EPO-C07
# B2: ZY0EOB-F05 human IgG1-TM (antibody, V domains shown)
# VH: QVQLQESGPGLVKPSQTLSLTCTVSDGSISSGGYYWSWIRQHPGKGLEWIGNIYYSGSTYYNPSLKSRVTISVDTSKNQFSLKLNSVTAADTAVYYCATEKALATVTPSGYENYYTVDVWGQGTTVTVSS
# VL: DIQLTQSPSFLSASVGDRVTITCWASQGISSYLAWYQQKPGKAPKLLIYAASTLQSGVPSRFSGSGSGTEFTLTISSLQPEDFATYYCQHLNSYPLTFGGGTKVEIK
# B3: ZY0EQD-E02 human IgG1-TM (antibody, V domains shown)
# VH: QVQLQQWGAGLLKPSETLSLTCAVYGGSFSGYYWNWIRQPPGKGLEWIGEINHSGSTSYNPSLKSRVTISVDTSKNQFSLKLSSVTAADTAVYYCARVLYNWNVDSWGQGTLVTVSS
# VL: DIQMTQSPSSLSASVGDRVTITCRASQDIRNDVGWYQQKPGKAPKRLIYAASRLQSGVPSRFSGSGSGTEFTLTISSLQPEDFATYYCLQHNSYPRTFGQGTKVEIK
# B4: ZY0EPQ-E02 human IgG1-TM (antibody, V domains shown)
# VH: B3 VH with S58N, S70L, V98N, V104L
# VL: B3 VL with D28G, V33L, K42R, A50V, R53S
# Target: T9, huB7-H1 (human, UniProt Q9NZQ7 19-238)
# T9 construct: Sourced antigen; construct not described; also called Human B7-H1
# Assay: ELISA
# T9 sequence (Q9NZQ7 19-238 limits assumed): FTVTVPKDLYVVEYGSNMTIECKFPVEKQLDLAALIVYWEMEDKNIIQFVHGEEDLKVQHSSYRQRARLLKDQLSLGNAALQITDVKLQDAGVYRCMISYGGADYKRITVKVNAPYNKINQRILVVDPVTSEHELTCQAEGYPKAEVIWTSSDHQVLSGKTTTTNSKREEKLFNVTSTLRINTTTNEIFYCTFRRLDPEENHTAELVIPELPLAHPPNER
row,Binder,binding result
1,B1,no binding
2,B2,no binding
3,B3,no binding
4,B4,no binding

# Target: T1, huBTN2A1
# Assay: ELISA
row,Binder,binding result
1,B1,no binding
2,B2,no binding
3,B3,no binding
4,B4,no binding

# Target: T10, huBTN3A2 (human, UniProt P78410 30-248, limits assumed)
# T10 construct: Sourced antigen; construct not described; also called Human BTN3A2
# Assay: ELISA
# T10 sequence (P78410 30-248 limits assumed): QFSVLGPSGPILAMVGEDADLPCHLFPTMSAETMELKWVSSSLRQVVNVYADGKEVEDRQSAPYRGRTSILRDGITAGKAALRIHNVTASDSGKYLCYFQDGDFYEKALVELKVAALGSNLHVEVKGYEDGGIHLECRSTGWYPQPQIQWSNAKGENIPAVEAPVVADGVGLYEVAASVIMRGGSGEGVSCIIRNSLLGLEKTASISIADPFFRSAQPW
row,Binder,binding result
1,B1,no binding
2,B2,no binding
3,B3,no binding
4,B4,no binding

# Target: T2, huB7-H3
# Assay: ELISA
row,Binder,binding result
1,B1,no binding
2,B2,no binding
3,B3,no binding
4,B4,no binding

# Target: T3, huHHLA2
# Assay: ELISA
row,Binder,binding result
1,B1,no binding
2,B2,no binding
3,B3,no binding
4,B4,no binding

# Target: T4, huBTNL3
# Assay: ELISA
row,Binder,binding result
1,B1,no binding
2,B2,no binding
3,B3,no binding
4,B4,no binding

# Target: T5, huBTN1A1
# Assay: ELISA
row,Binder,binding result
1,B1,no binding
2,B2,no binding
3,B3,no binding
4,B4,no binding

# Target: T6, huB7-H2
# Assay: ELISA
row,Binder,binding result
1,B1,no binding
2,B2,no binding
3,B3,no binding
4,B4,no binding

# Target: T7, Murine B7-H4-Fc (Mouse B7H4 ECD, …)
# Assay: HTRF binding, human IgG1-TM
Binder,EC50,Max
B1,0.2 nM,1250
B2,0.19 nM,1340
B3,1.44 nM,224
B4,1.76 nM,256

# Target: T8, Human B7-H4-Fc (Human B7H4 ECD, Fc_6His)
# Assay: HTRF binding, human IgG1-TM
Binder,EC50,Max
B1,0.31 nM,1210
B2,0.15 nM,1870
B3,0.33 nM,1270
B4,0.41 nM,1090
